Data published in publication PMC11863153, “Mechanistic Insights Into Oxidative Response of Heat Shock Factor 1 Condensates” (JACS Au, 2025).

B1: Heat shock factor 1 (Hsf1) wild-type [human] / itself (parent)
chain: MDLPVGPGAAGPSNVPAFLTKLWTLVSDPDTDALICWSPSGNSFHVFDQGQFAKEVLPKYFKHNNMASFVRQLNMYGFRKVVHIEQGGLVKPERDDTEFQHPCFLRGQEQLLENIKRKVTSVSTLKSEDIKIRQDSVTKLLTDVQLMKGKQECMDSKLLAMKHENEALWREVASLRQKHAQQQKVVNKLIQFLISLVQSNRILGVKRKIPLMLNDSGSAHSMPKYSRQFSLEHVHGSGPYSAPSPAYSSSSLYAPDAVASSGPIISDITELAPASPMASPGGSIDERPLSSSPLVRVKEEPPSPPQSPRVEEASPGRPSSVDTLLSPTALIDSILRESEPAPASVTALTDARGHTDTEGRPPSPPPTSTPEKCLSVACLDKNELSDHLDAMDSNLDNLQTMLSSHGFSVDTSALLDLFSPSVTVPDMSLPDLDSSLASIQELLSPQEPPRPPEAENSSPDSGKQLVHYTAQPLFLLDPGSVDTGSNDLPVLFELGEGSYFSEGDGFAEDPTISLLTGSEPPKAKDPTVS

Variants of: B1
Assay: nonreducing SDS-PAGE, quantification of higher-order oligomer bands
Settings: with itself; purified Hsf1 mutants; means ± s.d. of three independent experiments; parent: 1; read off a plot

ratio to parent | Variant
0.46 AU | chain 1 C153S
1.1 AU | chain 1 C36S C103S
1.4 AU | chain 1 C373S C378S
